Consider 1 variant from IntAct's records for PubMed 21822214.

First the molecules themselves.
B1: B-cell linker protein (Homo sapiens), Q8WV28 (parent)
chain: MDKLNKITVPASQKLRQLQKMVHDIKNNEGGIMNKIKKLKVKAPPSVPRRDYASESPADEEEQWSDDFDSDYENPDEHSDSEMYVMPAEENADDSYEPPPVEQETRPVHPALPFARGEYIDNRSSQRHSPPFSKTLPSKPSWPSEKARLTSTLPALTALQKPQVPPKPKGLLEDEADYVVPVEDNDENYIHPTESSSPPPEKAPMVNRSTKPNSSTPASPPGTASGRNSGAWETKSPPPAAPSPLPRAGKKPTTPLKTTPVASQQNASSVCEEKPIPAERHRGSSHRQEAVQSPVFPPAQKQIHQKPIPLPRFTEGGNPTVDGPLPSFSSNSTISEQEAGVLCKPWYAGACDRKSAEEALHRSNKDGSFLIRKSSGHDSKQPYTLVVFFNKRVYNIPVRFIEATKQYALGRKKNGEEYFGSVAEIIRNHQHSPLVLIDSQNNTKDSTRLKYAVKVS

In the test the parent is B1. Particulars: with cd2ap_human CD2AP.
With R49A;R247A;R312A, the “effect of a mutation on the interaction” value is given as “disrupting interaction”.
